The values below are quoted from earlier work in paper PMC5120336.

This series concerns the target IRAK-4 kinase domain (Homo sapiens) (UniProt Q9NWZ3).

IRAK-4 kinase domain, sequence (Q9NWZ3 154-460): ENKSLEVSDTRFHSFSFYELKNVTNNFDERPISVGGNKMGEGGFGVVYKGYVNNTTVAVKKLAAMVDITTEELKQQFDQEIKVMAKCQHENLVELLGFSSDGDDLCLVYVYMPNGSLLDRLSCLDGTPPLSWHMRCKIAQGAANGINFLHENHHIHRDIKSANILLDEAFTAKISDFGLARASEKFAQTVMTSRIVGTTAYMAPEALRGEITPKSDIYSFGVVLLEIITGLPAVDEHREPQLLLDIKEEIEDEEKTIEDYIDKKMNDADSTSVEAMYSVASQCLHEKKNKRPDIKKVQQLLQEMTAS

For orientation: Kd means a measure of binding affinity in units of concentration. On to “IRAK-4 kinase domain (from UniProt Q9NWZ3)”, for which the Kd was 2500 nM.
